{"source": "patent US10363306B2", "about": "“Cytokines and neuroantigens for treatment of immune disorders” (East Carolina University, priority 2009, dated 2019)", "molecules": {"B1": {"name": "ss-IFNβ-6his: Rat IFNβ with 6-histidine sequence, lacking the EK linker (protein, UniProt P70499 22-184, looked up)", "Interferon beta": "IDYKQLQFRQSTSIRTCQKLLRQLNGRLNLSYRTDFKIPMEVMHPSQMEKSYTAFAIQVMLQNVFLVFRSNFSSTGWNETIVESLLDELHQQTELLEIILKEKQEERLTWVTSTTTLGLKSYYWRVQRYLKDKKYNSYAWMVVRAEVFRNFSIILRLNRNFQN", "modifications": "C-terminal 6His tag"}, "B2": {"name": "ss-IFNβ: Rat IFNβ without non-native C-terminal or N-terminal additions (protein, UniProt P70499 22-184, looked up)", "Interferon beta": "B1 Interferon beta"}}, "key": {"Solubility of peptide": {"test": "Solubility of peptide", "assay_type": "physicochemical", "conditions": "routinely reconstituted in saline", "procedure": "A colony of Lewis rats was maintained at East Carolina University School of Medicine. Animal care and use was approved by the Institutional Animal Care and Use Committee and was performed in accordance with approved institutional guidelines. The synthetic peptide gp69-88 ([…]) (SEQ ID NO. 5) was obtained from Quality Controlled Biologicals, Inc. (Hopkinton, Mass.). The purity of gp69-88 was greater than 98%. […] The OX6 anti-I-A (RT1B) IgG1, the R73 anti-TCRβ IgG1, the OX81 anti-IL-4 IgG1, and the OX18 anti-MHC class I glycoproteins (MHC-I) (RT1A) IgG1 were concentrated by ultrafiltration of B cell hybridoma supernatants through Millipore spiral wound membranes (100 kd exclusion). Hybridomas were obtained from the European Collection of Cell Cultures. The B5 IgM anti-MHC-I (RT1A^a,b,l) mAb was purchased from BD Biosciences. FITC-conjugated goat anti-mouse IgG1 was purchased from Southern Biotechnology (Birmingham, Ala.)."}, "BN-GP T cells": {"test_system": "BN-GP T cells", "test": "IFNβ anti-proliferative activity in IL-2 stimulated cultures of BN-GP T cells", "assay_type": "cell-based, rat", "conditions": "expression supernatants, transient transfection of HEK293 cells", "procedure": "FIG. 1. The IFNβ-NAg his-tagged fusion protein was biologically active and was purified on nickel resins. (A) To assess whether IFNβ-NAg induced class I MHC expression, thymocytes (5×10^6/ml in complete RPMI) were cultured with or without IFNβ-NAg for 2 days and then were stained with B5 (anti-MHC-I), OX18 (anti-MHC-I), R73 (anti-TCRβ), or OX81 (anti-IL4; isotype control) and were analyzed by flow cytometry. (B) To assess IFNβ-mediated anti-proliferative activity, supernatants from two independently derived IFNβ-NAg expression systems as well as supernatants from several control expression systems were added at designated titrations (x-axis) to IL-2 stimulated cultures of BN-GP T cells. (C) To assess the specificity of anti-proliferative activity, baculovirus supernatants containing IFNβ-NAg were added at designated titrations to cultures of rat (R1T, BN-GP, RsL.11T, RsL.11, or Conal.8D9) or mouse (CTLL) T cells. Proliferative assays (B & C) were pulsed with [^3H]thymidine on the second day of a 3-day culture. (D) Shown is a representative SDS-PAGE analysis of purified IFNβ-NAg.\nFIG. 2. Structure-function analysis of the cytokine and NAg domains of IFNβ fusion proteins. (A) Expression supernatants containing designated IFNβ fusion proteins (see Table 2) were added to cultures of BN-GP T cells at designated titrations (x-axis). (B) The IFNβ-EK-NAg-6his or IFNβ-EK-6his fusion genes were inserted into the pCEP4 expression vector (Invitrogen). Inserts were verified by DNA sequencing, and the genes were expressed by transient transfection of HEK293 cells. Independently derived expression systems of IFNβ-EK-NAg-6his or IFNβ-EK-6his (3 each) were compared in the BN-GP T cell anti-proliferative assay. (C) Independently purified preparations (2 each) of each IFN-β fusion protein (IFNβ-NAg from HEK293 cells, IFNβ-NAg from baculovirus, and IFN-β from HEK293 cells) were added at designated concentrations to assess anti-proliferative activity. Two independently purified preparations of the same fusion protein were tested to verify the reliability of activity for each type of protein. The x-axis was based on the exponent of the molar concentration. For example, a concentration of 100 nM was represented as Log [10^−7]=Log10) (10^−7M)=−7 and was plotted by the exponent of −7. For these experiments (A-C), BN-GP T cells were cultured in IL-2. (D) The MBP-specific RsL.11 T cell clone and irradiated splenic APC were cultured with designated concentrations of purified IFNβ-NAg or GPMBP in the presence or absence of the OX6 anti-MHC-II mAb. (E) Five preparations of purified IFNβ-NAg and six preparations of purified IFN-β were tested for antigenic activity in cultures of RsL.11 T cells and irradiated splenic APC.\nThe RsL.11 MBP-specific clone was a stable, IL-2 dependent line derived from Lewis rats sensitized with rat MBP in CFA (Mannie, M. D., and M. S. Norris. 2001. MHC class-II-restricted antigen presentation by myelin basic protein-specific CD4+ T cells causes prolonged desensitization and outgrowth of CD4-responders. Cell Immunol 212:51-62). The RsL.11T clone was a transformed variant of the RsL.11 clone. […]"}}, "note": "Ends that are not written are not given here."}
{"molecule": "YGSLPQKSQRSQDENPVVHF [NAg]", "values": [{"measurement": "solubility", "setting": "Solubility of peptide", "value": "freely soluble"}]}
{"molecule": "B1", "values": [{"measurement": "Biological activity of IFNβ in expression supernatants", "setting": "BN-GP T cells", "value": "Weak activity"}]}
{"molecule": "B2", "values": [{"measurement": "Biological activity of IFNβ in expression supernatants", "setting": "BN-GP T cells", "value": "Potent activity"}]}
